Data reported in article PMC9769804.

Test system: SaraC (Stereum hirsutum FP-91666)
Assay: SPR
Settings: S-adenosylmethionine (16 mM, protein pre-incubation), SPR Biacore T200, CM5 anti-His capture, 1x PBS with 5% DMSO pH 7.5 (protein/SAM mix), oligos in 1x PBS, 25 C, 5 uL/min, analyte 0.25-4 uM (Fig. 1 legend …)

## ATCCAGAGCGAGCCTATTACG [Oligo1309]
Called weak, 6mA at positions 7 and 11
  Kd: 1.67 µM

## CGATCGGATTTGACGGTT [Oligo5564]
Two methyl groups, printed mG at positions 7 and 12, text calls these oligos 5mC or 6mA, so methylated base is ambiguous
  Kd: 0.821 µM

## GATTCCTTC [Oligo7291]
5mC at position 5
  Kd: 0.662 µM
